Source: article PMC10906223 (JCI Insight, 2024)
Where “and” joins values, the source holds several entries; their conditions need not be identical. Equal entries are not always repeated.

How the values were obtained:
[1] = test system: mouse dispersed islet cells; assay: Immunofluorescence: EphA4 intensity in glucagon+ mouse dispersed islet cells; format: cell-based; conditions: mouse cells; individual values; Figure 3H; listed as E;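 further: ImageJ intensity within ROI drawn around each glucagon+ cell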
Method: (§1) Coverslips were treated with WCDD301, preclustered Ephrin-A5 Fc, or preclustered Fc in the following sequential order: KRBH (11 mM glucose, 30 minutes), KRBH (1 mM glucose, 60 minutes), KRBH (1 mM glucose, 30 minutes), and KRBH (11 mM glucose, 60 minutes). After treatment, coverslips were washed once in PBS, fixed in 2% paraformaldehyde in PBS (30 minutes), and again washed in PBS. […] Following wash in PBS, coverslips were incubated in a mixture of Alexa Fluor 555 Phalloidin (Cell Signaling Technology, catalog 8953) and secondary antibodies (goat anti-rabbit Alexa Fluor 488, catalog A-21094, 1:1,000, Molecular Probes; and goat anti-mouse Alexa Fluor 633, catalog A21052, 1:1,000, Life Technologies) for 1 hour at RT. Both primary and secondary antibodies were diluted in blocking buffer containing 0.05% Tween 20. Coverslips were washed using PBS and counterstained by using DAPI (1:1,000) for 10 minutes. Following 2 washes in PBS, coverslips were mounted on glass slides using ProLong Glass Antifade Mountant (Invitrogen, catalog P36980). Images were captured using the Zeiss LSM880 microscope with a Plan-Apochromat 63× 1.4 NA objective lens by setting dual-band dichroic/filter for 405, 488, 561, and 633 nm laser excitation. For each slide, 25–30 fields of view were scanned, and in each field of view, 3–5 cells were imaged. […] Values of intensity were compared among groups using 1-way ANOVA, α = 0.05.

[2] = test system: murine dispersed islet cells; assay: Insulin secretion from murine dispersed islet cells; format: cell-based, mouse; conditions: Ephrin-A5 Fc (E), one value per mouse, Figure 1G, listed as E
Method: (§2) Pancreata of nondiabetic C57BL/6J mice were digested using collagenase P (Roche Diagnostics, catalog 11213873001), and islets were manually picked up using a stereomicroscope (ZEISS Stemi 305). […] Isolated mouse islets or provided human islets were dispersed as described ([28]). Briefly, 100–120 islets were washed 2 times using modified HBSS, then dispersed in 600 μL Accutase (Innovative Cell Technologies, catalog AT-104) by gently pipetting up and down for 7 minutes at 37°C. […] Following refreshing of KRBH, cells were dispensed in 8 microfuge tubes (2,000 cells/tube) and treated with WCDD301, preclustered Ephrin-A5 Fc, or preclustered Fc in the presence or absence of the competitive inhibitor of EphA4 receptor, rhyncophylline ([60]) (MilliporeSigma, catalog SML2345). In the presence or absence of these effectors, secretion assay was performed sequentially as shown in Supplemental Table 5. […] Preclustering of Ephrin-A5 Fc was done by mixing Ephrin-A5 Fc or Fc alone (BioLegend, catalog 790102) with anti-Fc antibody (Invitrogen, catalog A16086) (1:10 molar ratio) 20 minutes before treatment ([62]). […] Shedding of cleaved EphA4 was measured from the cell culture medium. Experiments were performed by dispersion of 200 islets, and EphA4 levels in media were measured by EphA4 ELISA (ABclonal, catalog RK06572).

[3] = test system: dispersed islet cells of donors with T1D; assay: Glucagon secretion from dispersed islet cells of donors with T1D; format: cell-based, human; conditions: dispersed islet cells, T1D donors, one value per donor, Figure 2H, listed as E
Method: as §2
(§3) The Integrated Islet Distribution Program provided us human donor islets with their characteristics (Supplemental Table 6). Islets were centrifuged at 500g for 3 minutes, resuspended in CMRL 1066 medium (Gibco, catalog 1150-037) containing 11 mM glucose, and rested in an incubator overnight.
(§4) For the hormone secretion assay, islets or dispersed islet cells were adapted in KRBH buffer containing 11 mM glucose for 1 hour. Then, after 2 washes in HBSS containing 11 mM glucose, islets or cells were treated in the following sequential order in the presence or absence of WCDD301: incubation in KRBH (1 mM glucose, 30 minutes) followed by medium collection, incubation in KRBH (11 mM glucose, 30 minutes) followed by medium collection.

[4] = test system: isolated islets of donors with T1D; assay: Glucagon secretion from isolated islets of donors with T1D; format: cell-based, human; conditions: isolated islets, T1D donors, one value per donor, Figure 2G, listed as E
Method: as §3, §4

[5] = test system: human dispersed islet cells; assay: Immunofluorescence: EphA4 intensity in glucagon+ human dispersed islet cells; format: cell-based; conditions: human cells; individual values; Figure 3G; listed as E;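 further: ImageJ intensity within ROI drawn around each glucagon+ cell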
Method: as §1

[6] = test system: mouse dispersed islet cells; assay: Immunofluorescence: F-actin intensity in glucagon+ mouse dispersed islet cells; format: cell-based; conditions: mouse cells; individual values; Figure 3F; listed as E;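 further: ImageJ intensity within ROI drawn around each glucagon+ cell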
Method: as §1

[7] = test system: murine dispersed islet cells; assay: Glucagon secretion from murine dispersed islet cells; format: cell-based, mouse; conditions: for Secretion of glucagon: E + Rhy (2.5 µM), Figure 1H; for Secretion of glucagon / Relative secretion of glucagon: listed as E; for Relative secretion of glucagon: Ephrin-A5 Fc (E), one value per mouse, Figure 1F
Method: as §2

[8] = test system: human donor dispersed islet cells; assay: Somatostatin secretion from non-diabetic human donor dispersed islet cells; format: cell-based; conditions: Ephrin-A5
Method: as §2, §3, §4

[9] = test system: dispersed islet cells of donors with T1D; assay: Insulin secretion from dispersed islet cells of donors with T1D; format: cell-based, human; conditions: dispersed islet cells, T1D donors, one value per donor, Figure 2J;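 further: insulin concentration in collected medium by Lumit immunoassay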
Method: as §2, §3, §4

[10] = test system: isolated islets of donors with T1D; assay: Insulin secretion from isolated islets of donors with T1D; format: cell-based, human; conditions: isolated islets, T1D donors, one value per donor, Figure 2I, listed as E;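 further: insulin concentration in collected medium by Lumit immunoassay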
Method: as §3, §4

[11] = test system: human dispersed islet cells; assay: Immunofluorescence: F-actin intensity in glucagon+ human dispersed islet cells; format: cell-based; conditions: human cells; individual values; Figure 3E; listed as E;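 further: ImageJ intensity within ROI drawn around each glucagon+ cell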
Method: as §1

B1: Ephrin-A5 Fc: recombinant mouse Ephrin-A5 Fc; natural ligand of EphA4 receptors (protein)
chain: QDPGSKVVADRYAVYWNSSNPRFQRGDYHIDVCINDYLDVFCPHYEDSVPEDKTERYVLYMVNFDGYSACDHTSKGFKRWECNRPHSPNGPLKFSEKFQLFTPFSLGFEFRPGREYFYISSAIPDNGRRSCLKLKVFVRPTNSCMKTIGVHDRVFDVNDKVENSLEPADDTVHESAEPSRGEN
modifications: left off: Fc, end not stated, kept
notes: recombinant mouse Ephrin-A5 Fc; natural ligand of EphA4 receptors
- EphA4 intensity [1]: 18.2 and 16.2 and 19.0 and 16.0 and 17.1 and 20.0 and 17.0 and 15.6 and 21.0 and 18.0 and 33.1 and 50.6 and 24.4 and 25.7
- Relative secretion of insulin ([2]; Glucose (1 mM)): 0.75 and 0.2 and 0.32 and 0.45 and 0.69
- Relative secretion of insulin ([2]; Glucose (11 mM)): 1.02 and 1 and 0.85 and 0.8 and 0.96
- Secretion of glucagon ([3]; 1 mM glucose): 14.105 and 25.56
- Secretion of glucagon ([3]; 11 mM glucose): 38.15 and 32.58
- Secretion of glucagon ([4]; 1 mM glucose): 40.65 and 55.72
- Secretion of glucagon ([4]; 11 mM glucose): 37.25 and 40.79
- EphA4 intensity [5]: 45.7 and 17.5 and 5.4 and 39.9 and 12.3 and 5.9 and 20.4 and 7.4 and 4.4
- F-actin intensity [6]: 8.2 and 11.3 and 9.4 and 8.4 and 9.8 and 8.6 and 5.2 and 8.9 and 7.7
- Effect on arginine-stimulated glucagon secretion ([7]; 1 mM and 11 mM glucose, Arg 25 mM, 301 3 µM, E 4 µg/mL, Supplemental Figure 2): its effect was suppressed
- Secretion of glucagon ([7]; Glucose (1 mM)): 0.8 and 0.85 and 0.95 and 1.05 and 1
- Secretion of glucagon ([7]; Glucose (11 mM)): 1.1 and 1.07 and 1.2 and 1.05 and 1.15
- Relative secretion of glucagon ([7]; Glucose (1 mM)): 0.85 and 0.95 and 1.05 and 0.7 and 0.8
- Relative secretion of glucagon ([7]; Glucose (11 mM)): 1.01 and 0.8 and 0.9 and 0.85 and 0.94
- Somatostatin secretion (Supplemental Figure 4D; quantity not given) [8]: 1908.4 and 2981.9 and 2200.0
- Secretion of insulin ([9]; 1 mM glucose): 0.06
- Secretion of insulin ([9]; 11 mM glucose, listed as E): 0.10 and 0.05
- Secretion of insulin ([10]; 1 mM glucose): 0.075 and 0.07
- Secretion of insulin ([10]; 11 mM glucose): 0.11 and 0.05
- F-actin intensity [11]: 9.8 and 7.6 and 4.7 and 8.3 and 7.5 and 5.1 and 5.9 and 5.2
